Laboratory results from PMC7432914, “Corynebacterium glutamicum CrtR and Its Orthologs in Actinobacteria: Conserved Function and Application as Genetically Encoded Biosensor for Detection of Geranylgeranyl Pyrophosphate” (International Journal of Molecular Sciences, 2020).

Assays:
[1] = target: T1, CrtRPn (CrtR from P. nicotinovorans) (Paenarthrobacter nicotinovorans, UniProt A0ABT9TUN6); assay: EMSA, inhibition of CrtR binding to own crtR promoter DNA; details: 100-650 uM GGPP, 15 min preincubation before DNA; pH 7.5, 10 mM MgCl2, room temperature
T1 construct: gene J2T10_004447; full length, N-terminal His-tag (pET16b) kept, E. coli BL21(DE3), Ni-NTA; gene divergent to idi, not the mmpL-linked paralog
T1 sequence (A0ABT9TUN6 1-195): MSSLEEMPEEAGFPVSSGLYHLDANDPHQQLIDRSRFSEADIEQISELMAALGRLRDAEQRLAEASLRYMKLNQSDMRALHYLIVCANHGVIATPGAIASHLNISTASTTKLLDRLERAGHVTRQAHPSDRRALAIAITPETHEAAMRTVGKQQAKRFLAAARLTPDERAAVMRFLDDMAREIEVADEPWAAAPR

[2] = target: T2, CrtRCc (CrtR from C. callunae) (Corynebacterium callunae, UniProt M1UIJ0); assay: EMSA, inhibition of CrtR binding to own crtR promoter DNA and crtE promoter DNA; details: 100-650 uM GGPP, 15 min preincubation before DNA; pH 7.5, 10 mM MgCl2, room temperature
T2 construct: gene H924_00295; full length, N-terminal His-tag (pET16b) kept, E. coli BL21(DE3), Ni-NTA
T2 sequence (M1UIJ0 1-194): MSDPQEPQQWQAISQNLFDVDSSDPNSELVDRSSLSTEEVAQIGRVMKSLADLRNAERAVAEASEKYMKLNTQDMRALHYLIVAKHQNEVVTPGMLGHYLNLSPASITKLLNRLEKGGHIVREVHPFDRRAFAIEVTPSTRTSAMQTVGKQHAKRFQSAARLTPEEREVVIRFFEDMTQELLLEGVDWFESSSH

[3] = target: T3, CrtR (CrtRCg) (Corynebacterium glutamicum ATCC 13032) (UniProt Q8NSP1); assay: EMSA; details: 50 mM Tris-HCl pH 7.5, 10% glycerol, 50 mM KCl, 10 mM MgCl2, 0.5 mM EDTA; 20 uL, 30-90 ng DNA, 30 min at room temperature; 78 bp cg2228 upstream fragment …
T3 sequence: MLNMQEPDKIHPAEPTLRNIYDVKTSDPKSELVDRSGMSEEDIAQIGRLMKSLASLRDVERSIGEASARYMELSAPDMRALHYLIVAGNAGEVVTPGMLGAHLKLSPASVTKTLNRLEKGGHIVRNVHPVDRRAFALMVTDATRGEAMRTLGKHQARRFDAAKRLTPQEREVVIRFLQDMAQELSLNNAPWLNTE

[4] = test system: T4, CrtR ortholog (CrtRPc) (Pseudarthrobacter chlorophenolicus DSM 12829), ORF:f49de8fb; assay: EMSA; details: 50 mM Tris-HCl pH 7.5, 10% glycerol, 50 mM KCl, 10 mM MgCl2, 0.5 mM EDTA; 20 uL, 30-90 ng DNA, 30 min at room temperature; 78 bp cg2228 upstream fragment …
T4 sequence: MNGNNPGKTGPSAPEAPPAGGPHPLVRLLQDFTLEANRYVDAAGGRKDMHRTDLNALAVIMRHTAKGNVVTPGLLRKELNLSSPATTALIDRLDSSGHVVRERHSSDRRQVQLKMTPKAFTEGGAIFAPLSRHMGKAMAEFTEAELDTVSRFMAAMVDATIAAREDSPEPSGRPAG

[5] = target: T5, CrtR (CrtRCg) (Corynebacterium glutamicum ATCC 13032, UniProt Q8NSP1 1-195); assay: EMSA; strong binding; 50 mM Tris-HCl pH 7.5, 10% glycerol, 50 mM KCl, 10 mM MgCl2, 0.5 mM EDTA; 20 uL, 30-90 ng DNA, 30 min at room temperature; 78 bp cg2228 upstream fragment (negative control) in every sample; GGPP preincubated 15 min; details: protein: recombinant; tags: N-terminal His-tag (pET16b), not removed; chain copies: 2; blunt
T5 sequence: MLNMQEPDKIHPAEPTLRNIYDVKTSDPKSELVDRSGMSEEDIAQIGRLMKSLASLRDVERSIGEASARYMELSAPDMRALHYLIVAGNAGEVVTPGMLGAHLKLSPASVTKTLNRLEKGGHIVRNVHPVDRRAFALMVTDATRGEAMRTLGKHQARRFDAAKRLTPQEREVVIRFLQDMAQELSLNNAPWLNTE

[6] = target: T6, CrtR ortholog (CrtRPn) (Paenarthrobacter nicotinovorans DSM 420, UniProt A0ABT9TUN6 1-195); assay: EMSA; no GGPP; not all DNA shifted; 50 mM Tris-HCl pH 7.5, 10% glycerol, 50 mM KCl, 10 mM MgCl2, 0.5 mM EDTA; 20 uL, 30-90 ng DNA, 30 min at room temperature; 78 bp cg2228 upstream fragment (negative control) in every sample; GGPP preincubated 15 min; details: protein: recombinant; tags: N-terminal His-tag (pET16b), not removed; chain copies: 2; blunt
T6 sequence: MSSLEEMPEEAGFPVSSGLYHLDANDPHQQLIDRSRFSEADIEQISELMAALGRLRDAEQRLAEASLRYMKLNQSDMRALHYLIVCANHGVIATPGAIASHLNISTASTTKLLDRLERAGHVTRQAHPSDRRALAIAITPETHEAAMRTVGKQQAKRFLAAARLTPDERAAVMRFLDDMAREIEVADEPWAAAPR

## CC(C)=CCC/C(C)=C/CC/C(C)=C/CC/C(C)=C/COP(=O)(O)OP(=O)(O)O [GGPP]
[1]
  EMSA, inhibition of CrtR binding to own crtR promoter DNA: GGPP inhibited the interaction between the tested CrtR proteins and their target DNA
[2]
  EMSA, inhibition of CrtR binding to own crtR promoter DNA and crtE promoter DNA: GGPP inhibited the interaction between the tested CrtR proteins and their target DNA

## TGCCTTCCATGCGGATGGTCCACGCGGGACAAAGCGGAGTAGGATTGGTTCCACATTAGACTATCTCCATGATAGAGATAAGTGCCAGTCAAGCTTTTTCAACGGGGGCCTCCGCCGGGGGCTTCCACGGCTGAGCCAGGTAATGCCAAGGCAGCTGAAGTAATATCCCTCAGGGCCTGTGCGCAAAGACGGACGGCCCCACGAACTCCAGGAGGTGACCATGAACGGCAACAATCCGGGCA (double strand) [P. chlorophenolicus crtR-mmpl intergenic region (PcrtR)]
[3]
  binding: binds more weakly
[4]
  binding: binds

B1: C. callunae crtR-mmpl intergenic region (dsDNA)
DNA 1: CGCAAGATGCCGGGAAATACGCTCTGAAGAGGGGTTTTCATGGCCTTAAACCTTTATATATGCAAATTGTTAAATTATCCAACAGTGTAAGGTATCCCATTTTCTTAAAAAAAGGGTTAATATCCATCTATGTCCGATCCGCAA
DNA 2: TTGCGGATCGGACATAGATGGATATTAACCCTTTTTTTAAGAAAATGGGATACCTTACACTGTTGGATAATTTAACAATTTGCATATATAAAGGTTTAAGGCCATGAAAACCCCTCTTCAGAGCGTATTTCCCGGCATCTTGCG
[5]
  binding result: binds

B2: P. nicotinovorans crtR-idi intergenic region (dsDNA)
DNA 1: CATACTGCGCCTTCCTCCTGCAACCTGAGTCTTTACAGCAGCCCGAATATTGCTAGACAAGCTAGAAGAAAGGCTACCATGTAGGAAGTTAGGTGTAACATACTCAGCATG
DNA 2: CATGCTGAGTATGTTACACCTAACTTCCTACATGGTAGCCTTTCTTCTAGCTTGTCTAGCAATATTCGGGCTGCTGTAAAGACTCAGGTTGCAGGAGGAAGGCGCAGTATG
[6]
  binding result: binds
[5]
  binding result: binds
